Measured values reported in US20070218064A1 (published 2007).
Changes are numbered by the printed parent chain.

T1: recombinant human IL-23 (hrIL-23), produced at Centocor (human, UniProt P29460 23-328)
T1 construct: p19-p40 heterodimer; also called rhIL-23; hIL-23
T1 sequence 1: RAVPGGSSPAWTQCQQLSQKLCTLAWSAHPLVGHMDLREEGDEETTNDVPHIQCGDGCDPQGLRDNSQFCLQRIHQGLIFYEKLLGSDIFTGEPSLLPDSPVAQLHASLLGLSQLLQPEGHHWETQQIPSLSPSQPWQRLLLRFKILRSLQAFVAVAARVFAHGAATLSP
T1 sequence 2: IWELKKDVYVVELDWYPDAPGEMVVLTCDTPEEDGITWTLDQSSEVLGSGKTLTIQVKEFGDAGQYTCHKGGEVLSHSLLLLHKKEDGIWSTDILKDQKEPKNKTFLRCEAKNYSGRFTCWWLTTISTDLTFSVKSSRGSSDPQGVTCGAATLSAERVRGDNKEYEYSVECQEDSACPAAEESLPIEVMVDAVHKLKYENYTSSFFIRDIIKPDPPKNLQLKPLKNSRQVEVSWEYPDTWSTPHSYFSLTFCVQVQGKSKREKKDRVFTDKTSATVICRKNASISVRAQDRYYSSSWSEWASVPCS

T2: recombinant human IL-12 (hrIL-12), produced at Centocor (human, UniProt P29459 23-219; P29460 23-328)
T2 construct: p35-p40 heterodimer; also called hIL-12; IL-12 CNTO
T2 sequence (looked up) 1: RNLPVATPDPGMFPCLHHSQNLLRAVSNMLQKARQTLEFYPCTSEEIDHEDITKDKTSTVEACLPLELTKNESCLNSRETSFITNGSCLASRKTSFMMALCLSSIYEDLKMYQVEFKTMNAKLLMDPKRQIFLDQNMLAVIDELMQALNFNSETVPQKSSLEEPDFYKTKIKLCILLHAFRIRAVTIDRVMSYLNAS
T2 sequence (looked up) 2: T1 sequence 2

T3: IL-12 (R&D) (UniProt P29459 23-219; P29460 23-328)
T3 construct: bought from R&D Systems; also called R&D IL-12
T3 sequence (looked up) 1: T2 sequence (looked up) 1
T3 sequence (looked up) 2: T1 sequence 2

B1: Fab MOR05046 (Fab, V domains shown)
VH: QVQLVQSGAEVKKPGESLKISCKGSGYSFSNYWIGWVRQMPGKGLEWMGIIDPVSSWTKYSPSFQGQVTISADKSISTAYLQWSSLKASDTAMYYCARWYYKPFDVWGQGTLVTVSS
VL: DIVLTQPPSVSGAPGQRVTISCTGSSSNIGSGYDVHWYQQLPGTAPKLLIYGNSKRPSGVPDRFSGSKSGTSASLAITGLQSEDEADYYCSSWTPSSVVFGGGTKLTVL
notes: H-CDR2 matured from 4649
B2: mAb MOR05063 (antibody, IgG1, V domains shown)
VH: QVELVESGGGLVQPGGSLRLSCAASGFTFSSFGMSWVRQAPGKGLEWVSNISSSGSSTYYADSVKGRFTISRDNSKNTLYLQMNSLRAEDTAVYYCARYWGTPYLMQFDNWGQGTLVTVSS
VL: DIALTQPASVSGSPGQSITISCTGTSSDVGGYNSVSWYQQHPGKAPKLMIYSVSSRPSGVSNRFSGSKSGNTASLTISGLQAEDEADYYCSDVFGGGTKLTVL
B3: mAb MOR05061 (antibody, IgG1, V domains shown)
VH: B2 VH
VL: DIALTQPASVSGSPGQSITISCTGTSSDVGGYNSVSWYQQHPGKAPKLMIYSVSSRPSGVSNRFSGSKSGNTASLTISGLQAEDEADYYCSSYVFGGGTKLTVL
B4: mAb MOR05062 (antibody, IgG1, V domains shown)
VH: B2 VH
VL: DIALTQPASVSGSPGQSITISCTGTSSDVGGYNSVSWYQQHPGKAPKLMIYSVSSRPSGVSNRFSGSKSGNTASLTISGLQAEDEADYYCYVFGGGTKLTVL
B5: mAb MOR05039 (antibody, IgG1, V domains shown)
VH: QVELVESGGGLVQPGGSLRLSCAASGFTFSSFGMSWVRQAPGKGLEWVSNITYYASVKGRFTISRDNSKNTLYLQMNSLRAEDTAVYYCARYWGTPYLMQFDNWGQGTLVTVSS
VL: DIALTQPASVSGSPGQSITISCTGTSSDVGGYNSVSWYQQHPGKAPKLMIYSVSSRPSGVSNRFSGSKSGNTASLTISGLQAEDEADYYCSSYDTNKPLVVFGGGTKLTVL
B6: mAb MOR05028 (antibody, IgG1, V domains shown)
VH: QVELVQSGAEVKKPGSSVKVSCKASGGTFSNYAISWVRQAPGQGLEWMGGIIPFGYAQKFQGRVTITADESTSTAYMELSSLRSEDTAVYYCARDIYAGMDVWGQGTLVTVSS
VL: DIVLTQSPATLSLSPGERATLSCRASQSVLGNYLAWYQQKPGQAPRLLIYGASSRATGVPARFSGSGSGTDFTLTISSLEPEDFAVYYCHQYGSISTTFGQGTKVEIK
B7: mAb MOR05032 (antibody, IgG1, V domains shown)
VH: QVELVQSGAEVKKPGSSVKVSCKASGGTFSSNYISWVRQAPGQGLEWMGGIIPIFGHANYAQKFQGRVTITADESTSTAYMELSSLRSEDTAVYYCARSKKGMYGGWTYPLMMFDLWGQGTLVTVSS
VL: DIVLTQSPATLSLSPGERATLSCRASQSVSSNYLAWYQQKPGQAPRLLIYYASRRATGVPARFSGSGSGTDFTLTISSLEPEDFAYYCQQNPFTFGQGTKVEIK
B8: mAb MOR05031 (antibody, IgG1, V domains shown)
VH: B7 VH
VL: B7 VL with N91T
B9: mAb MOR05036 (antibody, IgG1, V domains shown)
VH: QVELVQSGAEVKKPGSSVKVSCKASGGTFSSNYISWVRQAPGQGLEWMGIPFGAYAQKFQGRVTITADESTSTAYMELSSLRSEDTAVYYCARSKKGMYGGWTYPLMMFDLWGQGTLVTVSS
VL: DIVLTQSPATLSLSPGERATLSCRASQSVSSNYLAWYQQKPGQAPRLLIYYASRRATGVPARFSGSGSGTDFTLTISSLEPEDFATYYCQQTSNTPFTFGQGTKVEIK
B10: mAb MOR05037 (antibody, IgG1, V domains shown)
VH: B9 VH
VL: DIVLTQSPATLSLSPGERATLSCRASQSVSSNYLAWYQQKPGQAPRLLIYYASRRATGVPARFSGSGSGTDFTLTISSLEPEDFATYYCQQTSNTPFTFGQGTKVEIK
B11: mAb MOR05034 (antibody, IgG1, V domains shown)
VH: B9 VH
VL: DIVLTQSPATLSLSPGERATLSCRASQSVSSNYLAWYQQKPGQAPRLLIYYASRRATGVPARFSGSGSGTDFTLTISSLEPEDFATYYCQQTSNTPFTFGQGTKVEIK
B12: mAb MOR05033 (antibody, IgG1, V domains shown)
VH: B9 VH with P51I, F52P
VL: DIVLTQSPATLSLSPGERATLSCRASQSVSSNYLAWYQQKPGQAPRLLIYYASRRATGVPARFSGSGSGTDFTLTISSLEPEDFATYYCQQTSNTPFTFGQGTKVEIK
B13: Fab MOR04649 (Fab, V domains shown)
VH: B1 VH with V54S, S55N, W57Y, K59N
VL: B1 VL
notes: HuCAL Gold Fab, lambda
B14: Fab MOR04658 (Fab, V domains shown)
VH: B2 VH with E3Q
VL: B5 VL
notes: HuCAL Gold Fab, lambda

The binders below were run against T1, recombinant human IL-23 (hrIL-23), … (assay: IL-23/IL-23R competition assay).

IC50 [nM] | Binder
0.03 | B1

The binders below were run against T1, recombinant human IL-23 (hrIL-23), … (assay: cell-based or functional assay).

Inhibition of IL-17 production, IC50 [µg/mL] | Binder
0.198 | B2
0.309 | B3
0.199 | B4
0.161 | B5
0.104 | B6
0.172 | B7
0.215 | B8
0.17 | B9
0.336 | B10
0.185 | B11
0.283 | B12

What follows are binders tested against T2, recombinant human IL-12 (hrIL-12), … (assay: ELISA, antigen in solution to immobilized Fab).

binding result | Binder
no binding | B13
no binding | B14

Each binder was assayed against T3, IL-12 (R&D) (assay: ELISA, antigen in solution to immobilized Fab).

binding result | Binder
no binding | B13
no binding | B14
